We go through ten molecules from patent publication US20200048328A1 (Bristol-Myers Squibb, published 2020).

A word on the koff: it is the first-order rate constant of dissociation. Lower therefore signals a long-lived complex. Usually IC50 stands for the concentration that inhibits the measured activity by half. By Kd is commonly meant the concentration at which binding is half-saturated. Usually kon stands for the second-order rate constant of association. As usually defined, the EC50 is the concentration giving half of the maximal effect. Low values mean higher potency in that assay, high ones lower potency in that assay.

Assay [1] addresses T1, rhesus serum albumin (rhesus, UniProt Q28522 17-600).
T1 construct: also called RhSA; Rh-SA
In words: SPR, albumin immobilized, Adnectin 250 nM. A general note: Surface plasmon resonance follows binding to a sensor surface in real time, without labels.

The target of another assay is T2, rat serum albumin (rat, UniProt P02770 25-608).
T2 construct: also called Rat SA; RSA
Kind of assay: SPR, albumin immobilized, Adnectin 250 nM.

Assay [2] addresses T3, mouse serum albumin (mouse, UniProt P07724 25-608).
T3 construct: also called MSA; MuSA
In words: SPR, albumin immobilized, Adnectin 250 nM.

Assay [3] addresses T4, human serum albumin (human, UniProt P02768 25-609).
T4 construct: immobilized on chips or coated on plates elsewhere; also called HSA; HuSA
Kind of assay: SPR, albumin immobilized, Adnectin 250 nM.

Assay [4] deals with T5, human PCSK9 (human, UniProt Q8NBP7 31-692).
T5 construct: also called hPCSK9; huPCSK9
In words: PCSK9:LDLR FRET, competition.

In assay [5] the target is T1, rhesus serum albumin. In words: SPR, albumin immobilized.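 Note: biacore SPR with human, rhesus or mouse serum albumin amine-coupled to the chip (about 1200 RU), 3 min association, 6-10 min dissociation, reference-subtracted traces fitted with a 1:1 model.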
Assay [6] concerns the target T3, mouse serum albumin. Kind of assay: SPR, albumin immobilized.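 Note: biacore SPR with human, rhesus or mouse serum albumin amine-coupled to the chip (about 1200 RU), 3 min association, 6-10 min dissociation, reference-subtracted traces fitted with a 1:1 model.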
The target in assay [7] is T4, human serum albumin. Kind of assay: SPR, albumin immobilized.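 Note: biacore SPR with human, rhesus or mouse serum albumin amine-coupled to the chip (about 1200 RU), 3 min association, 6-10 min dissociation, reference-subtracted traces fitted with a 1:1 model.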
For assay [8], the target named is T5, human PCSK9. In words: BLI (Octet), biotinylated PCSK9 on tips, tandem in complex with excess HSA. For orientation: Biolayer interferometry detects binding as a change in optical thickness at a sensor tip.
The target in assay [9] is T5, human PCSK9. In words: PCSK9:EGFA FRET 2, competition.
Assay [10] deals with T5, human PCSK9. In words: PCSK9:EGFA FRET 1, competition.
Assay [11] addresses T1, rhesus serum albumin. Kind of assay: SPR, albumin immobilized, acetate pH 7.4.
Assay [12] addresses T3, mouse serum albumin. Kind of assay: SPR, albumin immobilized, acetate pH 7.4.
The target in assay [13] is T4, human serum albumin. In words: SPR, albumin immobilized, acetate pH 7.4.
For assay [14], the target named is T1, rhesus serum albumin. In words: direct binding ELISA, albumin coated. On the technique in general: ELISA stands for enzyme-linked immunosorbent assay.
Assay [15] deals with T3, mouse serum albumin. In words: direct binding ELISA, albumin coated.
Assay [16] concerns the target T4, human serum albumin. In words: direct binding ELISA, albumin coated.
Assay [17] concerns the target T5, human PCSK9. Kind of assay: BLI (Octet), biotinylated PCSK9 on tips, no HSA.
The target in assay [18] is T1, rhesus serum albumin. Kind of assay: SPR, albumin immobilized, HBSP pH 7.4.
The target in assay [19] is T3, mouse serum albumin. Kind of assay: SPR, albumin immobilized, HBSP pH 7.4.
Assay [20] has as its target T4, human serum albumin. In words: SPR, albumin immobilized, HBSP pH 7.4.
The target in assay [21] is T1, rhesus serum albumin. Kind of assay: SPR, albumin immobilized, acetate pH 5.5.
Assay [22] concerns the target T3, mouse serum albumin. In words: SPR, albumin immobilized, acetate pH 5.5.
Assay [23] deals with T4, human serum albumin. In words: SPR, albumin immobilized, acetate pH 5.5.

B1: 5963_A02.PS5-2 (designed binder)
chain: MGCSTSGVSDVPRDLEVVAATPTSLLISWDAPAVTVRYYRITYGREVQKYSDLGPLYIYQEFTVPGSKSTATISGLKPGVDYTITVYAVTGSGESPASSKPISINYRTPHHHHHH
As to B1, the koff is 0.000313 s⁻¹ with rhesus serum albumin [1], 0.000902 s⁻¹ with rat serum albumin, 0.000492 s⁻¹ with mouse serum albumin [2] and 0.000253 s⁻¹ with human serum albumin [3].

B2: 5963_D01.PS5-2 (designed binder)
chain: MGVSDVPRDLEVVCATPTSLLISWDAPAVTVRYYRITYGREVQKYSDLGPLYIYQEFTVPGSKSTATISGLKPGVDYTITVYAVTGSGESPASSKPISINYRTPHHHHHH
Regarding B2, the koff in the assay with rhesus serum albumin [1] stood at 0.000313 s⁻¹; in the assay with rat serum albumin, 0.000858 s⁻¹; with mouse serum albumin [2] it was 0.000499 s⁻¹; with human serum albumin [3] it was 0.000247 s⁻¹.

B3: 5963_F03.PS5-2 (designed binder)
chain: MGVSDVPRDLEVVAATPTSLLISWDAPCVTVRYYRITYGREVQKYSDLGPLYIYQEFTVPGSKSTATISGLKPGVDYTITVYAVTGSGESPASSKPISINYRTPHHHHHH
B3: the koff in the assay with rhesus serum albumin [1] turned out to be 0.000312 s⁻¹; with rat serum albumin, 0.000825 s⁻¹; in the assay with mouse serum albumin [2], 0.000504 s⁻¹; in the assay with human serum albumin [3] it was 0.000251 s⁻¹.

B4: 5963_E02.PS5-2 (designed binder)
chain: MGVSDVPRDLEVVAATPTSLLISWDAPAVTVRYYRITYGREVQKYSDLGPLYIYQEFTVPGSKSCATISGLKPGVDYTITVYAVTGSGESPASSKPISINYRTPHHHHHH
B4: the dissociation rate constant (koff) with rhesus serum albumin [1] was 0.000284 s⁻¹; with rat serum albumin, 0.00076 s⁻¹; with mouse serum albumin [2] it was 0.000461 s⁻¹; with human serum albumin [3] it was 0.000228 s⁻¹.

B5: 5963_E01.PS5-2 (designed binder)
chain: MGVSDVPRDLEVVAATPTSLLISWDAPAVTVRYYRITYGREVQKYSDLGPLYIYQEFTVPGSKSTACISGLKPGVDYTITVYAVTGSGESPASSKPISINYRTPHHHHHH
B5: the koff with rhesus serum albumin [1] was determined as 0.000313 s⁻¹; with rat serum albumin, 0.000848 s⁻¹; in the assay with mouse serum albumin [2], 0.000507 s⁻¹; with human serum albumin [3], 0.00025 s⁻¹.

B6: PCSK9-PKE2 tandem 4472_E06 (designed binder)
PCSK9 domain: MGVSDVPRDLEVVAATPTSLLISWDAPAEGYGYYRITYGETGGNSPVQEFTVPVSKGTATISGLKPGVDYTITVYAVEFDFPGAGYYHRPISINYRTE
PKE2 domain: GVSDVPRDLEVVAATPTSLLISWDAPAVTVRYYRITYGREVQKYSDLGPLYIYQEFTVPGSKSTATISGLKPGVDYTITVYAVTGSGESPASSKPISINYRTEHHHHHH
modifications: The real molecule is ONE polypeptide: PCSK9 domain, undisclosed linker I (a code letter), PKE2 domain. It is given here as two chains because the linker letters are unknown.
notes: also called 4427_E06; not shown: The inter-domain linker
With B6, the half-maximal inhibitory concentration (IC50) stood at 1.6 nM with human PCSK9 [4], 5.68 nM with human PCSK9 [9] and 7.67 nM with human PCSK9 [10]. The Kd with rhesus serum albumin [5] worked out at 71.9 nM; with mouse serum albumin [6], 20 nM; in the assay with human serum albumin [7], 68.4 nM; with human PCSK9 [8], 1 nM; with rhesus serum albumin [11], 65.4 nM; in the assay with mouse serum albumin [12] it was 26.1 nM. Moreover, the Kd was found to be 64.9 nM with human serum albumin [13]; 0.724 nM with human PCSK9 [17]; 64.9 nM with rhesus serum albumin [18]; 21.8 nM with mouse serum albumin [19]; 61.4 nM with human serum albumin [20]; 91.1 nM in the assay with rhesus serum albumin [21]. Also, the Kd amounted to 114 nM in the assay with mouse serum albumin [22] and 35.2 nM with human serum albumin [23]. Moreover, the koff came to 0.000415 s⁻¹ in the assay with rhesus serum albumin [5]; 0.0003 s⁻¹ with mouse serum albumin [6]; 0.000362 s⁻¹ in the assay with human serum albumin [7]; 0.000209 s⁻¹ with human PCSK9 [8]; 0.000408 s⁻¹ with rhesus serum albumin [11]; 0.000362 s⁻¹ in the assay with mouse serum albumin [12]. Further, the koff was 0.000383 s⁻¹ with human serum albumin [13]; 0.0002 s⁻¹ in the assay with human PCSK9 [17]; 0.000332 s⁻¹ with rhesus serum albumin [18]; 0.00033 s⁻¹ in the assay with mouse serum albumin [19]; 0.000292 s⁻¹ in the assay with human serum albumin [20]; 0.000788 s⁻¹ in the assay with rhesus serum albumin [21]. In addition, the results for the dissociation rate constant (koff) in the assay with mouse serum albumin [22] and with human serum albumin [23] were 0.00152 s⁻¹ and 0.000478 s⁻¹, respectively. In addition, the kon was determined as 5770 M⁻¹ s⁻¹ in the assay with rhesus serum albumin [5]; 15000 M⁻¹ s⁻¹ with mouse serum albumin [6]; 5300 M⁻¹ s⁻¹ in the assay with human serum albumin [7]; 207000 M⁻¹ s⁻¹ in the assay with human PCSK9 [8]; 6240 M⁻¹ s⁻¹ with rhesus serum albumin [11]; 14100 M⁻¹ s⁻¹ in the assay with mouse serum albumin [12]. Besides, the kon with human serum albumin [13] was determined as 5910 M⁻¹ s⁻¹; in the assay with human PCSK9 [17], 281000 M⁻¹ s⁻¹; with rhesus serum albumin [18], 5110 M⁻¹ s⁻¹; with mouse serum albumin [19], 15200 M⁻¹ s⁻¹; with human serum albumin [20], 4760 M⁻¹ s⁻¹; with rhesus serum albumin [21] it was 8640 M⁻¹ s⁻¹. In addition, the kon with mouse serum albumin [22] stood at 13400 M⁻¹ s⁻¹; with human serum albumin [23], 13600 M⁻¹ s⁻¹. Moreover, the EC50 in the assay with rhesus serum albumin [14] was found to be 40.1 nM; with mouse serum albumin [15], 4.2 nM; with human serum albumin [16], 67.3 nM.

B7: PCSK9-PKE2 tandem 4472_D06 (designed binder)
PCSK9 domain: MGVSDVPRDLEVVAATPTSLLISWDAPAEGYGYYRITYGETGGNSPVQEFTVPVSKGTATISGLKPGVDYTITVYAVEFDFPGAGYYHRPISINYRTE
PKE2 domain: GVSDVPRDLEVVAATPTSLLISWDAPAVTVRYYRITYGREVQKYSDLGPLYIYQEFTVPGSKSTATISGLKPGVDYTITVYAVTGSGESPASSKPISINYRTEHHHHHH
notes: not shown: The inter-domain linker; In the real molecule the two parts below are one polypeptide joined by this linker
B7: the IC50 in the assay with human PCSK9 [4] was determined as 1.8 nM; with human PCSK9 [9], 6.51 nM; with human PCSK9 [10], 8.12 nM. Also, the EC50 with rhesus serum albumin [14] came out at 93.1 nM; with mouse serum albumin [15], 15.6 nM; in the assay with human serum albumin [16], 139 nM.

B8: PCSK9-PKE2 tandem 4472_A04 (designed binder)
PCSK9 domain: MGVSDVPRDLEVVAATPTSLLISWDAPAEGYGYYRITYGETGGNSPVQEFTVPVSKGTATISGLKPGVDYTITVYAVEFDFPGAGYYHRPISINYRTE
PKE2 domain: GVSDVPRDLEVVAATPTSLLISWDAPAVTVRYYRITYGREVQKYSDLGPLYIYQEFTVPGSKSTATISGLKPGVDYTITVYAVTGSGESPASSKPISINYRTEHHHHHH
notes: as for B7
Take B8: the IC50 with human PCSK9 [4] amounted to 1.1 nM; with human PCSK9 [9], 4.44 nM; with human PCSK9 [10], 5.14 nM. Also, the EC50 with rhesus serum albumin [14] was 84 nM; with mouse serum albumin [15] it was 16.7 nM; in the assay with human serum albumin [16], 144 nM.

B9: 5916_E03.PS5-2 (designed binder)
chain: MGVSDVPRDLEVVAATPTSLLISWDAPAVTVRYYRITYGREVQKYSDLGPLYIYQEFTVPGSKSTATISGLKPGVDYTITVYAVTGSGESPASSKPISINYRTPCHHHHHH
Consider B9, for which the koff in the assay with rhesus serum albumin [1] turned out to be 0.000272 s⁻¹; with rat serum albumin, 0.000786 s⁻¹; with mouse serum albumin [2] it was 0.000452 s⁻¹; with human serum albumin [3], 0.000211 s⁻¹.

B10: 5916_A04.PS5-2 (designed binder)
chain: MGVSDVPRDLEVVAATPTSLLISWDAPAVTVRYYRITYGREVQKYSDLGPLYIYQEFTVPGSKSTATISGLKPGVDYTITVYAVTGSGESPASSKPISINYRTPEDEDGCHHHHHH
In the case of B10, the koff with rhesus serum albumin [1] was found to be 0.000172 s⁻¹; with rat serum albumin, 0.000547 s⁻¹; in the assay with mouse serum albumin [2], 0.000307 s⁻¹; in the assay with human serum albumin [3], 0.000148 s⁻¹.
